Reference: patent publication US20260055369A1 (H LEE MOFFITT CANCER CENTER AND RESEARCH INSTITUTE, published 2026)

Assays:
[1] = biological target: T1, Notch1 on CHO-K1 N1-Gal4 fluorescent reporter cells (UniProt P46531 19-2555, limits assumed); test: cell-based or functional assay
[2] = biological target: Notch1 on U2OS hNotch1-Gal4 luciferase reporter cells (human, UniProt P46531 19-2555); test: cell-based or functional assay
[3] = biological target: Notch2 on U2OS Notch2-Gal4 luciferase reporter cells (human, UniProt Q04721 26-2471); test: cell-based or functional assay
Chain of Notch2 on U2OS Notch2-Gal4 luciferase reporter cells (Q04721 26-2471): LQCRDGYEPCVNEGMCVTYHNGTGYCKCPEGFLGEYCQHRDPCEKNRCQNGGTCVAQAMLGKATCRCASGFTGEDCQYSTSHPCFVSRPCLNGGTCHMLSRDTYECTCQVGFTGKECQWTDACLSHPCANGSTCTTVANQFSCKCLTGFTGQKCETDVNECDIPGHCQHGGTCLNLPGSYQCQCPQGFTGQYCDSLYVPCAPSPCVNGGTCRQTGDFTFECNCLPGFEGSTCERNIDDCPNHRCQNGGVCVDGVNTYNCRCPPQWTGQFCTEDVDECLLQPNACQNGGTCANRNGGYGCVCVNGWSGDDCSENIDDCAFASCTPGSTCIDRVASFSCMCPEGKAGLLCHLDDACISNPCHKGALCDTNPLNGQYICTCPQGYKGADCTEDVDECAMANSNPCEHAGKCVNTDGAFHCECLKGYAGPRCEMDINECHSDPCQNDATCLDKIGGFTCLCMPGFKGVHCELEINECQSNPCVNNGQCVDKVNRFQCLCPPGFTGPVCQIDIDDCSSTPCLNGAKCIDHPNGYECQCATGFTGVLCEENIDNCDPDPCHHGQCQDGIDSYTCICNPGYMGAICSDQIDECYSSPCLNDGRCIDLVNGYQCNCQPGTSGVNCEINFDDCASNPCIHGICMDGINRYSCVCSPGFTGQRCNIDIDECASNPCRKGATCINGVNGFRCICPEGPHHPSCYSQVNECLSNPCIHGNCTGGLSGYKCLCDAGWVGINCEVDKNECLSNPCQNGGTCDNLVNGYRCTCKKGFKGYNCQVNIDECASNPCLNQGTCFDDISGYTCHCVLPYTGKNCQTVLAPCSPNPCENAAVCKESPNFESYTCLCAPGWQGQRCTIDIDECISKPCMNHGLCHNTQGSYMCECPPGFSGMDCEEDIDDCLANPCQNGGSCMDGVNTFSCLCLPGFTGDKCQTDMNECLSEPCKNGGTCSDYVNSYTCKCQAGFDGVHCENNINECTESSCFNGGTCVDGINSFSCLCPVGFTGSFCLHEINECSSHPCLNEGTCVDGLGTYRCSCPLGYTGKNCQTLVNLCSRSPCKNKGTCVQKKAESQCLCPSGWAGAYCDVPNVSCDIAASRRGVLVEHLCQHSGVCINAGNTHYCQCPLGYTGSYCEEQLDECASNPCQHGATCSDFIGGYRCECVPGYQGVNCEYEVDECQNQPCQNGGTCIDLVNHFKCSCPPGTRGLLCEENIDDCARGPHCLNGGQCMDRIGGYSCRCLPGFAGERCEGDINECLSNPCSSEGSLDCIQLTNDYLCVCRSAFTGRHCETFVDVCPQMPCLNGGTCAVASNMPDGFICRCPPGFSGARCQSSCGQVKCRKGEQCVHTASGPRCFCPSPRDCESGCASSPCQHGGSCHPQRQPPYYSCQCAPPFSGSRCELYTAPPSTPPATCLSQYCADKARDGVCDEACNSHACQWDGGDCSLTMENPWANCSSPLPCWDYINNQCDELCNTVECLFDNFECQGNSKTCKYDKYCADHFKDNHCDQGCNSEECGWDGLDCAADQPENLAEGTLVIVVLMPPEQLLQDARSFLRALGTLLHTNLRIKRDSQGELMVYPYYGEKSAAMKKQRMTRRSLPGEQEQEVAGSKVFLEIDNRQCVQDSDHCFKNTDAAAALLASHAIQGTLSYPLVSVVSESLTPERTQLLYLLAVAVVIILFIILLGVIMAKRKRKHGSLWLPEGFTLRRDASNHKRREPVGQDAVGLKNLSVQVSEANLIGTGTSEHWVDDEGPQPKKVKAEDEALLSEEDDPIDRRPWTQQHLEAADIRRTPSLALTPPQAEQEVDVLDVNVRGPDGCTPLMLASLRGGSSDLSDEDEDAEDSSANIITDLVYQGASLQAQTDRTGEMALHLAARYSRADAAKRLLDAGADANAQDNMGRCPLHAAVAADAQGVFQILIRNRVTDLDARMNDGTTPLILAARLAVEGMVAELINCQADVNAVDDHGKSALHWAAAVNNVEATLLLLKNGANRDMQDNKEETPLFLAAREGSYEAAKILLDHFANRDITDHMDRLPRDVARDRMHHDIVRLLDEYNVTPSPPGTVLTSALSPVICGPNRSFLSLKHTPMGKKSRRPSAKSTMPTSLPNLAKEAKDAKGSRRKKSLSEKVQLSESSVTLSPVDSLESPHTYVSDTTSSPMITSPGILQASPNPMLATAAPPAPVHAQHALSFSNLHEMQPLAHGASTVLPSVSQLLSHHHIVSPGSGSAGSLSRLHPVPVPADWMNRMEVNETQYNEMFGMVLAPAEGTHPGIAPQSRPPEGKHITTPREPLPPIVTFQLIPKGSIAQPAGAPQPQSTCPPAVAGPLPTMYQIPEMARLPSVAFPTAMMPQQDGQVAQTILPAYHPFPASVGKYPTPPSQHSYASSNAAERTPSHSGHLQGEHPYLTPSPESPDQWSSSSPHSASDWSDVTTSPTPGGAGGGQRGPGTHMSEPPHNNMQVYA

[4] = biological target: Notch3 on U2OS Notch3-Gal4 luciferase reporter cells (human, UniProt Q9UM47 40-2321); test: cell-based or functional assay
[5] = biological target: T1, Notch1 on CHO-K1 N1-Gal4 fluorescent …; test: flow cytometry, ligand tetramers on Notch1-overexpressing CHO-K1 N1-Gal4 cells
[6] = biological target: T2, mouse Notch1 (EGF6-13, residues 221-526), biotinylated (mouse, UniProt Q01705 221-526, Biotinylated in vitro by BirA at the C-terminal BAP-tag (tag not in the letters).); test: SPR steady-state binding isotherm, biotinylated mNotch1 (EGF6-13) on a streptavidin chip, DLL4 variant as analyte, response normalized to the maximum (100%)
T2 construct: Immobilised on a streptavidin chip for SPR; also called mNotch1 EGF6-13; mNotch1 (6-13)
T2 sequence: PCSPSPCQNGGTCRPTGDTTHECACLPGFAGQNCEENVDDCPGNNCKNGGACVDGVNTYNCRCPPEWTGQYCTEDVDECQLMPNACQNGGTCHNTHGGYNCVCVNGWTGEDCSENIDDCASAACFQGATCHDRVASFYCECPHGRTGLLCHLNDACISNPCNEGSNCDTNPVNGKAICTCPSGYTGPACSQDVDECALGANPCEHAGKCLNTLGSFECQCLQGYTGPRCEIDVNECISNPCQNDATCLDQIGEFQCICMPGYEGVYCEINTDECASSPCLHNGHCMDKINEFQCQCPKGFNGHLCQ
From the text: Extended Data FIG. 5. Quantitation of mNotch1 binding to DLL4 variants, ligand adsorption, and Notch surface expression. a, SPR binding isotherms were fitted to a 1:1 binding model to determine the binding affinity between mNotch1 (6-13) and each DLL4 variant. b, Determination of plate adsorption for WT DLL4 and Delta^MAX by ELISA. Data represent mean values±s.d. of three biological replicates. c, Binding assay of WT DLL4 and Delta^MAX tetramers to Notch1 overexpressing CHO-K1 N1-Gal4 cells was measured by flow cytometry. Data represent mean values±s.d. of three biological replicates. d, The level of Notch1 expression on the surface of cell lines used in this study was determined by flow cytometry. Data represent mean values±s.d. of three biological replicates. e, Percentage of CD8⁺ T cells expressing Notch1 (upper graph) and Notch2 (bottom graph) on cell surface determined by flow cytometry after stimulation with K32-WT DLL4, K32-Delta^MAX, or K32 for 96 hours. Data represent mean values±s.e.m. of three biological replicates. Delta^MAX statistics are referred to WT DLL4. *P<0.05, ****P<0.0001 (Two-way ANOVA).
Equilibrium dissociation constants were determined by surface plasmon resonance using a Biacore T200 instrument (GE Healthcare). […]

T1 sequence (P46531 19-2555 limits assumed): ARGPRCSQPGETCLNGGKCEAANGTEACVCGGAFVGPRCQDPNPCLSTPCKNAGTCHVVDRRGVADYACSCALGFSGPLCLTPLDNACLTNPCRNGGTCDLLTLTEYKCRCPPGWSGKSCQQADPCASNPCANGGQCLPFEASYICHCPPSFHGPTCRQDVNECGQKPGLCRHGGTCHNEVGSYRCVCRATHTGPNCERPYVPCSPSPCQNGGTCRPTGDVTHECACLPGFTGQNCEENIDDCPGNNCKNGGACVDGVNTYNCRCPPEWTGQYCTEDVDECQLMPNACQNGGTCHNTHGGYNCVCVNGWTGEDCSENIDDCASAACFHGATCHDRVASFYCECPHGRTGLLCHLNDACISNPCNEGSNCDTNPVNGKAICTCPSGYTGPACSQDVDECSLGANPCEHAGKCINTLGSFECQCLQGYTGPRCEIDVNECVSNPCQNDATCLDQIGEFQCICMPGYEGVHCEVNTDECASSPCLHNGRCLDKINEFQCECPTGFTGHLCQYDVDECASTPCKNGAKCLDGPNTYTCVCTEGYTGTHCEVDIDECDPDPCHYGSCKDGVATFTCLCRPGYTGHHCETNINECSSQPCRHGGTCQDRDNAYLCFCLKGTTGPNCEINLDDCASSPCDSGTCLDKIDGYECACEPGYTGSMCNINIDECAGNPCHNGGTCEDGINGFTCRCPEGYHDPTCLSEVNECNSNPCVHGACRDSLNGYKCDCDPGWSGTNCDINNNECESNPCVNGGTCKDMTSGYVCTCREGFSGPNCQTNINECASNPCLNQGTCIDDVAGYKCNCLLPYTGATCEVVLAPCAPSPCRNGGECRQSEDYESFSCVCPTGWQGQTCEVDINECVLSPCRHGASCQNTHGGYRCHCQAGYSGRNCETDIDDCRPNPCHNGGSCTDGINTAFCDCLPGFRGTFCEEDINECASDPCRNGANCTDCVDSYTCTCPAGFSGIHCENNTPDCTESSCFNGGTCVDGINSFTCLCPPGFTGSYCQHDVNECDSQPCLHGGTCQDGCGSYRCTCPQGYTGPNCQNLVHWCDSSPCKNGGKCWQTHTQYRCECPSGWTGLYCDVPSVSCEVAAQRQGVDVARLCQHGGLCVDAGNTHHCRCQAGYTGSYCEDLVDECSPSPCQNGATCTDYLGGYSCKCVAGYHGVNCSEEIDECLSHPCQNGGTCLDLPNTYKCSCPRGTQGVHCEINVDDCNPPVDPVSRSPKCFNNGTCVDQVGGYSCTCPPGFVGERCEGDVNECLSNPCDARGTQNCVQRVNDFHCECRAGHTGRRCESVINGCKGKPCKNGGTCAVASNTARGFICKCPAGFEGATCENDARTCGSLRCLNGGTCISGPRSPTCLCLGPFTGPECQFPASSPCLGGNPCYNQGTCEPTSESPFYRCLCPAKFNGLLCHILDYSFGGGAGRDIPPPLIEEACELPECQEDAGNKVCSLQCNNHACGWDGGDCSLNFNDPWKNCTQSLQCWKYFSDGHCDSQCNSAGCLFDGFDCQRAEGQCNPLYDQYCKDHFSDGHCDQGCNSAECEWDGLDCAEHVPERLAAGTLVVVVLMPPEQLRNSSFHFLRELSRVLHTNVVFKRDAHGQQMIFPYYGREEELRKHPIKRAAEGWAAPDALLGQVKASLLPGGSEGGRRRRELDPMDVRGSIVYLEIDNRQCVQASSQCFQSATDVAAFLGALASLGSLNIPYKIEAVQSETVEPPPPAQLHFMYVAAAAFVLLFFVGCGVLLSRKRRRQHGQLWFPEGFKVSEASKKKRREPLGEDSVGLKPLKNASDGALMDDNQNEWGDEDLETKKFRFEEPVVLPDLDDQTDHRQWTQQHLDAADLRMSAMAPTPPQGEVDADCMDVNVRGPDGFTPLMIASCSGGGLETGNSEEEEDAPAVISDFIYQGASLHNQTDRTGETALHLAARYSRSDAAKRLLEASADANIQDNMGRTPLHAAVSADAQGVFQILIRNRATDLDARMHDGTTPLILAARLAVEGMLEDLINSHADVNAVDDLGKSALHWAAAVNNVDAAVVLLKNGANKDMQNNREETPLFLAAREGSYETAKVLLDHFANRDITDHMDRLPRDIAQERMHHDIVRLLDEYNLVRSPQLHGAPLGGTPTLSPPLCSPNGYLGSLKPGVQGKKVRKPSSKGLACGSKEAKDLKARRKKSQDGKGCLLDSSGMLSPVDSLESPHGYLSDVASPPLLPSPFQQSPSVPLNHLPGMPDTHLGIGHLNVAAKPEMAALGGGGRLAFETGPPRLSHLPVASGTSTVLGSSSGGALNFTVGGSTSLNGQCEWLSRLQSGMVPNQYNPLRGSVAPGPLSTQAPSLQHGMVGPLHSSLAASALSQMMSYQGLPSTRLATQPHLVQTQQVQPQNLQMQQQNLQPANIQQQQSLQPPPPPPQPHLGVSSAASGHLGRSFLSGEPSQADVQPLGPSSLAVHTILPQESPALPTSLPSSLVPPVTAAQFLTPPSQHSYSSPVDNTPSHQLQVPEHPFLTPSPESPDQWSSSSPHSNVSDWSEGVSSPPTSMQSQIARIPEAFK
Chain of Notch1 on U2OS hNotch1-Gal4 luciferase reporter cells (P46531 19-2555): as the sequence (P46531 19-2555 limits assumed) above

B1: WT DLL4 (N-EGF5, residues 27-400), C-terminally biotinylated (ligand)
chain: SGVFQLQLQEFINERGVLASGRPCEPGCRTFFRVCLKHFQAVVSPGPCTFGTVSTPVLGTNSFAVRDDSSGGGRNPLQLPFNFTWPGTFSLIIEAWHAPGDDLRPEALPPDALISKIAIQGSLAVGQNWLLDEQTSTLTRLRYSYRVICSDNYYGDNCSRLCKKRNDHFGHYVCQPDGNLSCLPGWTGEYCQQPICLSGCHEQNGYCSKPAECLCRPGWQGRLCNECIPHNGCRHGTCSTPWQCTCDEGWGGLFCDQDLNYCTHHSPCKNGATCSNSGQRSYTCTCRPGYTGVDCELELSECDSNPCRNGGSCKDQEDGYHCLCPPGYYGLHCEHSTLSCADSPCFNGGSCRERNQGANYACECPPNFTGSNCEGLNDIFEAQKIEWHE
modifications: biotin on the C-terminal BAP-tag (BirA ligase)
EC50 of Notch1 activation, fluorescent reporter cells, biotinylated ligand on streptavidin plates [1]: 16 nM

B2: DLL4^MAX (N-EGF5, residues 27-400), C-terminally biotinylated (ligand)
chain: SSVFQLQLQEFINERGVLASGRPCEPGCRTFFRVCLKHFQAVVSPGPCTFGTVSTPVLGTNSFAVRDDSSGGGRNPLQLPLNFTWPGTFSLIIEAWHAPGDDLRPEALPPDALISKFAIQGSLAVGQNWLLDEQTSTLTRLRYSYRVICSDNYYGDNCSRLCKKRNDYFGHYVCQPDGNPSCLPGWTGEYCQQPICLSGCHEQNGYCSKPAECLCRPGWQGRLCNECIPHPGCRHGTCSTPWQCLCDEGWGGLYCDQDLNYCTHHSPCKNGATCRNSGPRSYTCTCRPGYTGVDCELELSECDSNPCRNGGSCKDQEDGYHCLCPPGYYGLHCEHSTLSCADSPCFNGGSCRERNQGANYACECPPNFTGSNCEGLNDIFEAQKIEWHE
modifications: biotin on the C-terminal BAP-tag (BirA ligase)
notes: Used coupled to streptavidin (plates, beads, or as tetramers for cell staining); also called biotinylated Delta^MAX; C-terminally anchored Delta^MAX; not shown: His-tag
EC50 of Notch1 activation, fluorescent reporter cells, biotinylated ligand on streptavidin plates [1]: 1.7 nM
Notch1 reporter activity with 25 µm coated beads, against DLL4 microbeads [1]: 4.5 fold
increase in Notch1 activation relative to control, Delta^MAX-coated streptavidin beads [2]: 21 fold
increase in Notch1 activation relative to control, oriented coupling on streptavidin plates [2]: 50 fold
luciferase reporter signalling at 50 nM immobilised ligand, against WT DLL4 [2]: 2 fold
luciferase reporter signalling at 50 nM immobilised ligand, against WT DLL4 [3]: 2.5 fold
luciferase reporter signalling at 50 nM immobilised ligand, against WT DLL4 [4]: 3 fold
fold increase of MFI compared to WT DLL4 [5]: 4.7 fold

B3: human wild-type DLL4 (N-EGF5, residues 27-400), non-biotinylated (ligand)
chain: SGVFQLQLQEFINERGVLASGRPCEPGCRTFFRVCLKHFQAVVSPGPCTFGTVSTPVLGTNSFAVRDDSSGGGRNPLQLPFNFTWPGTFSLIIEAWHAPGDDLRPEALPPDALISKIAIQGSLAVGQNWLLDEQTSTLTRLRYSYRVICSDNYYGDNCSRLCKKRNDHFGHYVCQPDGNLSCLPGWTGEYCQQPICLSGCHEQNGYCSKPAECLCRPGWQGRLCNECIPHNGCRHGTCSTPWQCTCDEGWGGLFCDQDLNYCTHHSPCKNGATCSNSGQRSYTCTCRPGYTGVDCELELSECDSNPCRNGGSCKDQEDGYHCLCPPGYYGLHCEHSTLSCADSPCFNGGSCRERNQGANYACECPPNFTGSNCEHHHHHHHH
EC50 of Notch1 activation, fluorescent reporter cells, ligand non-specifically adsorbed to plates [1]: 2.3 ng/mm^2

B4: DLL4.v1 (N-EGF5), non-biotinylated (ligand)
chain: SSVFQLQLQEFINERGVLASGRPCEPGCRTFFRVCLKHFQAVVSPGPCTFGTVSTPVLGTNSFAVRDDSSGGGRNPLQLPLNFTWPGTFSLIIEAWHAPGDDLRPEALPPDALISKFAIQGSLAVGQNWLLDEQTSTLTRLRYSYRVICSDNYYGDNCSRLCKKRNDYFGHYVCQPDGNPSCLPGWTGEYCQQPICLSGCHEQNGYCSKPAECLCRPGWQGRLCNECIPHNGCRHGTCSTPWQCTCDEGWGGLFCDQDLNYCTHHSPCKNGATCSNSGQRSYTCTCRPGYTGVDCELELSECDSNPCRNGGSCKDQEDGYHCLCPPGYYGLHCEHSTLSCADSPCFNGGSCRERNQGANYACECPPNFTGSNCEHHHHHHHH
notes: also called human DLL4 with the five E12 mutations (Site 1+Site 2)
EC50 (read off the curve) [6]: ~100 nM
